Test results published in paper PMC11697048, “Ce6-GFFY is a novel photosensitizer for colorectal cancer therapy” (Genes & Diseases, 2024).

Experiments:
[1] = In vivo imaging, kinetics of Ce6 fluorescence in mice; parameters: species or system mouse
Method: (§1) For in vivo imaging, Ce6-GFFY (5 mg/kg) and Ce6 molecules (2.5 mg/kg) were injected into mice burdened with or without xenograft tumors through the tail vein (100 μL/mouse), and the fluorescence intensity of mice or main tissues such as brain, heart, liver, spleen, lung, kidney, intestine, and stomach was detected and analyzed with an IVIS spectrum imaging system (PerkinElmer, MA, USA). All animal experiments were approved by The Institutional Animal Care and Use Committee at Sun Yat-sen Cancer Center.

HCT116 cells [2] = test: ROS detection with DCFH-DA; type: cell-based, human; conditions: HCT116, 5 μM, 1 h, 660 nm laser 1 min 0.02 W/cm^2, confocal laser scanning microscopy
Method: (§2) For cell endocytosis detection, CT26 and HCT116 cells were treated with Ce6 molecules (5 μM) or Ce6-GFFY (5 μM) at 37 °C for 1 h. For ROS detection, cells were treated with Ce6 molecules (5 μM), GFFY peptide (5 μM), or Ce6-GFFY (5 μM) at 37 °C for 1 h and then treated with or without laser irradiation for 1 min (660 nm, 0.02 W/cm^2). Afterward, the cells were collected and stained with DCFH-DA (1:5000) at 37 °C for 20 min. For cell death analysis, cells were treated with Ce6 molecules, GFFY peptide, or Ce6-GFFY (CT26, 10 μM; HCT116, 5 μM) at 37 °C for 1 h and then treated with or without laser irradiation for 1 min (660 nm, 0.02 W/cm^2). After incubation at 37 °C for 24 h, the cells were collected and stained with propidium iodide (1:100) and annexin V-FITC (1:200). For examination of CRT expression, cells were treated with Ce6 molecules, GFFY peptide, or Ce6-GFFY (CT26, 10 μM; HCT116, 5 μM) at 37 °C for 1 h and then treated with or without laser irradiation for 1 min (660 nm, 0.02 W/cm^2). After incubation at 37 °C for 8 h, the cells were collected and blocked with 5% bull serum albumin for 10 min and then incubated with a primary anti-calreticulin antibody (#ab92516, Abcam), followed by the incubation of an Alexa Fluor 488-conjugated secondary antibody (#406416, BioLegend). […]

CT26 cells [3] = test: ROS detection with DCFH-DA; type: cell-based, mouse; conditions: CT26, 5 μM, 1 h, 660 nm laser 1 min 0.02 W/cm^2, confocal laser scanning microscopy
Method: as §2

[4] = Toxicity evaluation in mice (blood routine, liver and kidney function, H&E pathology); type: in vivo, mouse; conditions: 5 mg/kg i.v. plus laser irradiation
Excerpt: Four-to-six-week-old BALB/c mice and BALB/c nude mice were purchased from Guangdong Medical Laboratory Animal Center (Guangzhou, China). All mice were maintained under standard conditions and treated according to institutional guidelines for animal care. For primary tumor therapy, 2 × 10^5 CT26 cells were suspended in a 1:1 mixture of PBS and matrigel and subcutaneously injected into the flanks of the mice. When the volume of tumors reached 70 mm^3, the mice were randomized into treatment and control groups. The treatment groups received tail intravenous injections of GFFY (2.5 mg/kg), Ce6 (2.5 mg/kg), or Ce6-GFFY (5 mg/kg), and the control group received PBS treatment, both groups were treated with once 660 nm laser irradiation for 8 min (1 min on, 1 min off; 4 cycles) on the tumor region at a power of 0.2 W/cm^2. Tumor volume and mouse body weight were recorded every three days, and tumor tissues were collected and weighed at the end of treatment. Main organs such as the heart, liver, spleen, lung, and kidney were collected for pathological analysis and the blood was collected for blood routine examination.

HCT116 cells [5] = test: CCK-8 assay; type: cell-based, human; conditions: drug 1 h, 660 nm laser 1 min at 0.02 W/cm^2, then 24 h at 37 °C, read-out: IC50 (proliferation)
Method: (§3) Cell viability was measured using a CCK-8 cell counting kit (Beyotime Biotechnology, Shanghai, China). 7000 cells were seeded in 96-well plates and treated with drugs at various concentrations for 1 h and then treated with or without laser irradiation for 1 min (660 nm, 0.02 W/cm^2), followed by incubation at 37 °C for 24 h. After the addition of the CCK-8 reagent, the cells were continually incubated at 37 °C for 3 h before being detected by a microplate reader (TECAN, Victoria, Austria).

CT26-derived tumors = test: In vivo imaging, tumor targeting in mice bearing CT26-derived tumors; parameters: species or system mouse; conditions: tail vein, 5 mg/kg, n = 3
Method: as §1

CT26 cells [6] = test: CCK-8 assay; type: cell-based, mouse; conditions: drug 1 h, 660 nm laser 1 min at 0.02 W/cm^2, then 24 h at 37 °C, read-out: IC50 (proliferation)
Method: as §3

CT26 cells [7] = test: Cell endocytosis (uptake) detection by Ce6 fluorescence; type: cell-based, mouse; conditions: CT26, 5 μM, 37 °C, 1 h
Method: as §2

HCT116 cells [8] = test: as above; type: cell-based, human; conditions: HCT116, 5 μM, 37 °C, 1 h
Method: as §2

[9] = confocal laser scanning microscopy, versus Ce6 molecules
[10] = flow cytometry, Ce6 fluorescence

Row | Structure (SMILES) | time after injection by which almost cleared ([1]; mice, tail vein injection, 2.5 mg/kg, living imaging of Ce6 luminescence, n = 5) | half-life in mice ([1]; mice, tail vein injection, Ce6-GFFY 5 mg/kg, Ce6 2.5 mg/kg, from Ce6 luminescence changes, IVIS imaging, n = 5) | ROS production upon 660 nm laser irradiation (HCT116 cells [2]) | ROS production upon 660 nm laser irradiation (CT26 cells [3]) | retention time in the mice ([1]; mouse, in vivo, 5 mg/kg) | hepatic and renal function (AST, ALT, BUN) ([4]; end of treatment, n = 5) | murine blood routine analysis (inflammatory responses) ([4]; end of treatment, n = 5) | histopathological analysis of heart, liver, spleen, lung, and kidney (H&E) ([4]; n = 4) | IC50 (HCT116 cells [5]) | accumulation in tumor regions after injection (CT26-derived tumors; living imaging) | distribution in tumor and normal tissues after 24 h (CT26-derived tumors; organs and tumors imaged at 24 h) | IC50 (CT26 cells [6]) | cellular Ce6 fluorescence (CT26 cells [7]; [9]) | cellular uptake (Ce6 positive cells) (CT26 cells [7]; [10]) | cellular Ce6 fluorescence (HCT116 cells [8]; [9]) | cellular uptake (Ce6 positive cells) (HCT116 cells [8]; [10])
1 | C=Cc1c(C)c2cc3nc(c(CC(=O)O)c4[nH]c(cc5nc(cc1[nH]2)C(C)=C5CC)c(C)c4C(=O)O)[C@@H](CCC(=O)O)[C@@H]3C [Ce6, chlorin e6] | ≤ 12 h | 3 h | minimal | minimal | – | – | – | – | – | – | – | – | – | – | – | –
2 | C=Cc1c(C)c2cc3nc(c(CC(=O)NCC(=O)N[C@@H](Cc4ccccc4)C(=O)N[C@@H](Cc4ccccc4)C(=O)N[C@@H](Cc4ccc(O)cc4)C(=O)O)c4[nH]c(cc5nc(cc1[nH]2)C(C)=C5CC)c(C)c4C(=O)O)[C@@H](CCC(=O)O)[C@@H]3C [Ce6-GFFY] | – | – | – | – | over 48 h | did not exert an impact on the hepatic and renal function | did not elicit any significant inflammatory responses | no apparent toxicity | 5.3 µM | accumulated rapidly in the tumor regions | stable aggregation in tumor tissues | 6.27 µM | noticeable aggregation of Ce6 fluorescence | much higher than Ce6 molecules | noticeable aggregation of Ce6 fluorescence | much higher than Ce6 molecules
